The target of the experiment is Skp1-FBW7 complex (UniProt Q969H0). As to the kind of experiment: ITC; MicroCal VP-ITC, 30°C; cell: 15 μM purified Skp1-FBW7 complex in 50 mM phosphate buffer, pH 7.4; syringe: 321 μM FIRΔexon2; 10 μL injections, 20 s, 150 s delay. For orientation: ITC needs no label: the signal is the heat of the interaction.

A value given as a limit tells only on which side of the number the result lay.

UniProt Q969H0, sequence (Q969H0 whole entry, chain 1 of 2): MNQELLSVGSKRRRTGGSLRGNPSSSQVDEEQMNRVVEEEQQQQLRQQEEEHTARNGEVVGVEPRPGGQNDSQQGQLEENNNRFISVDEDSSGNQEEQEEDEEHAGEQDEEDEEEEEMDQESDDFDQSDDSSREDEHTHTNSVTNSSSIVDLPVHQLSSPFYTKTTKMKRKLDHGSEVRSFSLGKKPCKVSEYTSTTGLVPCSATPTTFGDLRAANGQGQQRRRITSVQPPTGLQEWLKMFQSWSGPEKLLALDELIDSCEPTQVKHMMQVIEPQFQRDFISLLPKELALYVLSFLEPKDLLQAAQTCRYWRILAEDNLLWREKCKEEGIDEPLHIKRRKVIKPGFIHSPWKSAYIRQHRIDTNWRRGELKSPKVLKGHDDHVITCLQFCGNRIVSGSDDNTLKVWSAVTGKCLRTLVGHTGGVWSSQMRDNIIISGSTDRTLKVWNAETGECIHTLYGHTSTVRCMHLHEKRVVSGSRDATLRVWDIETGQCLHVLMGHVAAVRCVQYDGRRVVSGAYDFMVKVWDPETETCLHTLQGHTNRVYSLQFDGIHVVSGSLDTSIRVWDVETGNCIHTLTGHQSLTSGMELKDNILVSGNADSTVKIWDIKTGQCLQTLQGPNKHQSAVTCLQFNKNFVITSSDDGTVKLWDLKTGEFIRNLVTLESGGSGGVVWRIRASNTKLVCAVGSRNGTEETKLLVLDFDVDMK
UniProt Q969H0, sequence (P63208 whole entry, chain 2 of 2, further chain): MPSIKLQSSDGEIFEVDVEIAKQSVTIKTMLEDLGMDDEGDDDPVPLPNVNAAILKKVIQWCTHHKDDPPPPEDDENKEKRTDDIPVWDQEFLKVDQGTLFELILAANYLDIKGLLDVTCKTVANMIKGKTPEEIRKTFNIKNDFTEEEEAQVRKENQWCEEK

“FIRΔexon2 (alternative splicing variant of far upstream element binding protein 1 (FUBP1) interacting repressor, FIR / PUF60, lacking exon 2) (natural protein)” displayed a Ka of over 1e+08 M⁻¹.

The values are drawn from publication PMC5955432.
